{
  "source": "patent US20050100970A1",
  "about": "(Affibody, published 2005)",
  "binders": {"B1": {"name": "wild type Albumin Binding Protein (ABD) (other)", "chain": "MKAIFVLNAQHDEAVDANSLAEAKVLANRELDKYGVSDYYKNLINNAKTVEGVKALIDEILAALP", "notes": "Expressed in E. coli from pTrpABDT1T2; also called ABDwt; unmutated protein"}, "B2": {"name": "ABDmut54-57-58 (designed binder)", "chain": "B1 chain with N28L, N42D, N45D, N46K, K54A, I57A, D58A", "notes": "also called 54-57-58 A; ABDmutS4-57-58"}, "B3": {"name": "ABDmut (Asn28Leu, Asn42Asp, Asn45Asp, Asn46Lys variant of ABD) (designed binder)", "chain": "B1 chain with N28L, N42D, N45D, N46K", "notes": "Expressed in E. coli from pTrpABDmutT1T2; also called ABDstab; mutated ABD"}, "B4": {"name": "ABDmut22-25-26 (designed binder)", "chain": "B1 chain with E22A, V25A, L26A, N28L, N42D, N45D, N46K", "notes": "also called 22-25-26 A; triple mutant of ABDmut"}},
  "key": {"human serum albumin [1]": {"biological_target": "T1, human serum albumin (human, UniProt P02768 25-609)", "T1 construct": "Amine-coupled to a CM5 chip, coupled to Sepharose, or loaded in solution onto the ABD columns; also called HSA", "assay": "BIAcore 2000, HSA immobilised on CM5 chip, 40-220 nM ABDwt"}, "human serum albumin [2]": {"biological_target": "T1, human serum albumin", "assay": "Biacore 2000, HSA immobilised on a CM5 chip, analyte at 200 nM, 20 µl/min"}, "human serum albumin [3]": {"biological_target": "T1, human serum albumin", "assay": "BIAcore 2000, HSA immobilised on CM5 chip, 200-600 nM ABDmut"}},
  "note": "Positions count from the first letter of the chain named.",
  "data": [
    {"binder": "B1", "values": [
      {"measurement": "Ka", "setting": "human serum albumin [1]", "result": "6.9e+07", "unit": "M⁻¹"},
      {"measurement": "koff", "setting": "human serum albumin [1]", "result": 0.0013, "unit": "s⁻¹"},
      {"measurement": "kon", "setting": "human serum albumin [1]", "result": 90000, "unit": "M⁻¹ s⁻¹"}
    ]},
    {"binder": "B2", "values": [
      {"measurement": "binding result", "setting": "human serum albumin [2]", "result": "binds"}
    ]},
    {"binder": "B3", "values": [
      {"measurement": "Ka", "setting": "human serum albumin [3]", "result": "1.5e+07", "unit": "M⁻¹"},
      {"measurement": "koff", "setting": "human serum albumin [3]", "result": 0.0012, "unit": "s⁻¹"},
      {"measurement": "kon", "setting": "human serum albumin [3]", "result": 18000, "unit": "M⁻¹ s⁻¹"}
    ]},
    {"binder": "B4", "values": [
      {"measurement": "binding result", "setting": "human serum albumin [2]", "result": "binds"}
    ]}
  ]
}
